# Measurements from patent US20140255415A1 (Novartis, published 2014).
# T1: rat LINGO-1 expressed on CHO-K1 cells (CHO-K1-rLINGO-1) (rat, UniProt A0A8I5ZPI2 34-614)
# T1 construct: range 34-614; not shown: 2 amino acid residue linker
# T1 sequence: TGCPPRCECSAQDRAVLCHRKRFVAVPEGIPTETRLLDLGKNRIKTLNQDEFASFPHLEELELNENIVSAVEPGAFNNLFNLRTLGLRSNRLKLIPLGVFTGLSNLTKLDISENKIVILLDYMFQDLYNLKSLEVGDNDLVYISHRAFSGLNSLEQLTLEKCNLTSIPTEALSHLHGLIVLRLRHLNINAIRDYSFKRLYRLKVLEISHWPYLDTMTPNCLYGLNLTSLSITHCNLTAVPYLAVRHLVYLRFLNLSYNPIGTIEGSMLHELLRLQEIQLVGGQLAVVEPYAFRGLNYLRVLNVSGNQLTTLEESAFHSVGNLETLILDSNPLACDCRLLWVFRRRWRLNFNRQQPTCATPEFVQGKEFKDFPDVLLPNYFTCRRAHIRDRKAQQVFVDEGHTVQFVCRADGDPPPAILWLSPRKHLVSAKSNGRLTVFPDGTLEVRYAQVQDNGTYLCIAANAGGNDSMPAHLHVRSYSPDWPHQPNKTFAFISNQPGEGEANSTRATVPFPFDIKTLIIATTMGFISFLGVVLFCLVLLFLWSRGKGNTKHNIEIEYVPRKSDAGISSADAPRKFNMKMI
# T2: cynomolgus monkey LINGO-1 expressed on CHO-K1 cells (CHO-K1-cmLINGO-1) (cynomolgus monkey, UniProt Q9N008 34-614)
# T2 construct: range 34-614; also called Cynomolgus LINGO-1; not shown: 2 amino acid residue linker
# T2 sequence (looked up): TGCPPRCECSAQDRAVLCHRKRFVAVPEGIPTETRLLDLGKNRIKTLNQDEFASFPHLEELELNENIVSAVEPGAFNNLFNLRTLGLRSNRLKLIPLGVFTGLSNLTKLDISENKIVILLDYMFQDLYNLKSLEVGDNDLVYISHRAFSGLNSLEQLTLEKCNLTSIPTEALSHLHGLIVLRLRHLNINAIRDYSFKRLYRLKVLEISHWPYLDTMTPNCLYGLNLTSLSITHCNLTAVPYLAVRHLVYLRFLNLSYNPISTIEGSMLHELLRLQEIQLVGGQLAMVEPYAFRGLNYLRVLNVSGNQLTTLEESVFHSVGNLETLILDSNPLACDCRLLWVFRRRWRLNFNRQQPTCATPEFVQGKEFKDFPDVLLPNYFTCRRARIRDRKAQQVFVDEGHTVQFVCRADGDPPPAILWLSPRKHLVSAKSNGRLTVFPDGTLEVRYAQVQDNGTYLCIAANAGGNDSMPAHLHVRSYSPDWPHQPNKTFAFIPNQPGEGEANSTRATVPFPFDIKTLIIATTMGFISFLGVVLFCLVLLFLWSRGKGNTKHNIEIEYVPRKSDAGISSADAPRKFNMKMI
# T3: human NgR-Fc fusion protein (R&D Systems) (human, UniProt Q9BZR6 27-447, limits assumed)
# T3 construct: Commercial protein; also called captured human NgR-Fc; not shown: Fc part of the commercial fusion protein; not described
# T3 sequence (looked up): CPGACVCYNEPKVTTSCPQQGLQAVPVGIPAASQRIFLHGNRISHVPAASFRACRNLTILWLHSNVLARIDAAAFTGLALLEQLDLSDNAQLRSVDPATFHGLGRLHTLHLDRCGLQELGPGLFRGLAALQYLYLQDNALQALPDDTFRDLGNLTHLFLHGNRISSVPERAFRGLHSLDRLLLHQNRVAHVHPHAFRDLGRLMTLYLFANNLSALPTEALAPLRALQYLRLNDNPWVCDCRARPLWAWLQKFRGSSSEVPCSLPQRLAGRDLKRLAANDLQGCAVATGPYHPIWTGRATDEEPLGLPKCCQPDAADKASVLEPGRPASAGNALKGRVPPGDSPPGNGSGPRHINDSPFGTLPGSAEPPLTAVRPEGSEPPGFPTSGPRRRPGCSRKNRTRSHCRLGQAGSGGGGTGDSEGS
# T4: human LINGO-1-ΔLRR-Fc (Igleader-hsLINGO-1-ΔLRR-Fc) (human, UniProt Q96FE5 40-556)
# T4 construct: Heterologous secretion signal left out; also called human LINGO-1 lacking the LRR domain
# T4 sequence: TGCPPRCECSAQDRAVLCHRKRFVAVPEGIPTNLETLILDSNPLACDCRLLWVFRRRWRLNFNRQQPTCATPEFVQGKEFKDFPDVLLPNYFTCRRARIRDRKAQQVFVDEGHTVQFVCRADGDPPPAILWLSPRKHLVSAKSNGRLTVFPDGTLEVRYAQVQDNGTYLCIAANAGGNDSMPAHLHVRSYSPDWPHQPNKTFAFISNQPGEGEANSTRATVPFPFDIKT
# Experiments:
# [1] = molecular target: Unrelated Fc; experiment: ELISA, Fc fusion captured via goat anti-human IgG Fc, Fab detected with AP-conjugated secondary and AttoPhos
# [2] = molecular target: T1, rat LINGO-1 expressed on CHO-K1 cells …; experiment: apparent KD, FACS saturation binding on CHO-K1-rLINGO-1 cells, Fab format
# Description: (§1) Cell based affinity of anti-LINGO-1 specific antibodies is determined by FACS saturation binding experiments. […] Otherwise the staining procedure is done identical to the FACS staining procedure described above.
# (§2) In detail, CHO-K1-hLINGO-1, CHO-K1-cmLINGO-1 or CHO-K1-rLINGO-1 are detached from culture flasks by versene, washed with FACS buffer and resuspended in FACS buffer. Purified anti-LINGO-1 Fabs are serially diluted in FACS buffer and spread into round bottom 96-well microtiter plates (NUNC™, Wiesbaden, Germany). For each concentration, duplicate wells are incubated with 1.25×10⁴ cells for 30-60 min on ice in a total volume of 100 μl.
# [3] = molecular target: T2, cynomolgus monkey LINGO-1 expressed on …; experiment: apparent KD, FACS saturation binding on CHO-K1-cmLINGO-1 cells, Fab format
# Description: as §1, §2
# [4] = molecular target: T3, human NgR-Fc fusion protein (R&D …); experiment: ELISA, captured Fc fusion protein
# [5] = molecular target: T4, human LINGO-1-ΔLRR-Fc …; experiment: ELISA, captured Fc fusion protein
binder,measurement,setting,value
"anti-LINGO-1 Fab 4785 (Fab, V domains shown) VH: QVQLQQSGPGLVKPSQTLSLTCAISGDSVSDNSAAWSWIRQSPGRGLEWLGLIYLRSKWDNDYAVSVKSRITINPDTSKNQFSLQLNSVTPEDTAVYYCARTGRADEFDVWGQGTLVTVSS VL: DIVLTQPPSVSGAPGQRVTISCSGSSSNIGNNYVSWYQQLPGTAPKLLISRNSKRPSGVPDRFSGSKSGTSASLAITGLQSEDEADYYCSTYDTFSIVFGGGTKLTVLG",relative fluorescence units (RFU),[1],6 RFU
same,Kd,[2],260 pM
same,Kd,[3],260 pM
same,binding result,[4],no binding
same,binding result,[5],no binding
